According to patent publication US20240158455A1, “MULTIPLE SCLEROSIS ASSOCIATED AUTOANTIGENS, AND USE THEREOF IN THERAPY AND DIAGNOSIS” (NEOGAP Therapeutics AB, priority 2017, published 2024):

B1: FABP7 isoform 2. Full length: recombinant full-length human FABP7 isoform 2 (SEQ ID NO: 1) produced in E. coli; in b59 "FABP7" refers to PrEST data (protein, listed as Homo sapiens)
chain: MVEAFCATWKLTNSQNFDEYMKALGVGFATRQVGNVTKPTVIISQEGDKVVIRTLSTFKNTEISFQLGEEFDETTADDRNCKSVVSLDGDKLVHIQKWDGKETNFVREIKDGKMVMVSNDNSPFFLVFFSSPHTSHLLPSSSLLLPFFLLPSFFNNTSLARFFNYM
B2: PROK2: recombinant full-length PROK2 (SEQ ID NO: 2) produced in E. coli (protein, listed as Homo sapiens)
chain: MRSLCCAPLLLLLLLPPLLLTPRAGDAAVITGACDKDSQCGGGMCCAVSIWVKSIRICTPMGKLGDSCHPLTRKNNFGNGRQERRKRKRSKRKKEVPFFGRRMHHTCPCLPGLACLRTSFNRFICLAQK
B3: RTN3: recombinant full-length RTN3 (SEQ ID NO: 3) produced in E. coli (protein, listed as Homo sapiens)
chain: MAEPSAATQSHSISSSSFGAEPSAPGGGGSPGACPALGTKSCSSSCADSFVSSSSSQPVSLFSTSQEGLSSLCSDEPSSEIMTSSFLSSSEIHNTGLTILHGEKSHVLGSQPILAKEGKDHLDLLDMKKMEKPQGTSNNVSDSSVSLAAGVHCDRPSIPASFPEHPAFLSKKIGQVEEQIDKETKNPNGVSSREAKTALDADDRFTLLTAQKPPTEYSKVEGIYTYSLSPSKVSGDDVIEKDSPESPFEVIIDKAAFDKEFKDSYKESTDDFGSWSVHTDKESSEDISETNDKLFPLRNKEAGRYPMSALLSRQFSHTNAALEEVSRCVNDMHNFTNEILTWDLVPQVKQQTDKSSDCITKTTGLDMSEYNSEIPVVNLKTSTHQKTPVCSIDGSTPITKSTGDWAEASLQQENAITGKPVPDSLNSTKEFSIKGVQGNMQKQDDTLAELPGSPPEKCDSLGSGVATVKVVLPDDHLKDEMDWQSSALGEITEADSSGESDDTVIEDITADTSFENNKIQAEKPVSIPSAVVKTGEREIKEIPSCEREEKTSKNFEELVSDSELHQDQPDILGRSPASEAACSKVPDTNVSLEDVSEVAPEKPITTENPKLPSTVSPNVFNETEFSLNVTTSAYLESLHGKNVKHIDDSSPEDLIAAFTETRDKGIVDSERNAFKAISEKMTDFKTTPPVEVLHENESGGSEIKDIGSKYSEQSKETNGSEPLGVFPTQGTPVASLDLEQEQLTIKALKELGERQVEKSTSAQRDAELPSEEVLKQTFTFAPESWPQRSYDILERNVKNGSDLGISQKPITIRETTRVDAVSSLSKTELVKKHVLARLLTDFSVHDLIFWRDVKKTGFVFGTTLIMLLSLAAFSVISVVSYLILALLSVTISFRIYKSVIQAVQKSEEGHPFKAYLDVDITLSSEAFHNYMNAAMVHINRALKLIIRLFLVEDLVDSLKLAVFMWLMTYVGAVFNGITLLILAELLIFSVPIVYEKYKTQIDHYVGIARDQTKSIVEKIQAKLPGIAKKKAE
B4: SNAP91: recombinant full-length SNAP91 (SEQ ID NO: 4) produced in E. coli (protein, listed as Homo sapiens)
chain: MSGQTLTDRIAAAQYSVTGSAVARAVCKATTHEVMGPKKKHLDYLIQATNETNVNIPQMADTLFERATNSSWVVVFKALVTTHHLMVHGNERFIQYLASRNTLFNLSNFLDKSGSHGYDMSTFIRRYSRYLNEKAFSYRQMAFDFARVKKGADGVMRTMAPEKLLKSMPILQGQIDALLEFDVHPNELTNGVINAAFMLLFKDLIKLFACYNDGVINLLEKFFEMKKGQCKDALEIYKRFLTRMTRVSEFLKVAEQVGIDKGDIPDLTQAPSSLMETLEQHLNTLEGKKPGNNEGSGAPSPLSKSSPATTVTSPNSTPAKTIDTSPPVDLFATASAAVPVSTSKPSSDLLDLQPDFSSGGAAAAAAPAPPPPAGGATAWGDLLGEDSLAALSSVPSEAQISDPFAPEPTPPTTTAEIATASASASTTTTVTAVTAEVDLFGDAFAASPGEAPAASEGAAAPATPTPVAAALDACSGNDPFAPSEGSAEAAPELDLFAMKPPETSVPVVTPTASTAPPVPATAPSPAPAVAAAAAATTAATAAATTTTTTSAATATTAPPALDIFGDLFESTPEVAAAPKPDAAPSIDLFSTDAFSSPPQGASPVPESSLTADLLSVDAFAAPSPATTASPAKVDSSGVIDLFGDAFGSSASEPQPASQAASSSSASADLLAGFGGSFMAPSPSPVTPAQNNLLQPNFEAAFGTTPSTSSSSSFDPSVFDGLGDLLMPTMAPAGQPAPVSMVPPSPAMAASKALGSDLDSSLASLVGNLGISGTTTKKGDLQWNAGEKKLTGGANWQPKVAPATWSAGVPPSAPLQGAVPPTSSVPPVAGAPSVGQPGAGFGMPPAGTGMPMMPQQPVMFAQPMMRPPFGAAAVPGTQLSPSPTPASQSPKKPPAKDPLADLNIKDFL

biological target: HLA DRB5 01:01; experiment: competitive HLA binding assay (legend: - No binding)

Molecule	binding result
ACDKDSQCGGGMCCA (also called Pool 1 PROK2) [PROK2 peptide #2 (Aa 33-47 of SEQ ID NO: 2)]	no binding
IRTLSTFKNTEISFQ (also called Pool 2 FABP7) [FABP7 peptide #11 (Aa 52-66 of SEQ ID NO: 1)]	no binding
GRRMHHTCPCLPGLA (also called Pool 3 PROK2) [PROK2 peptide #18 (Aa 100-114 of SEQ ID NO: 2)]	no binding
TFKNTEISFQLGEEF (also called Pool 2 FABP7) [FABP7 peptide #12 (Aa 57-71 of SEQ ID NO: 1)]	no binding
KRSKRKKEVPFFGRR (also called Pool 2 PROK2) [PROK2 peptide #13 (Aa 88-102 of SEQ ID NO: 2)]	no binding
SQCGGGMCCAVSIWV (also called Pool 1 PROK2) [PROK2 peptide #3 (Aa 38-52 of SEQ ID NO: 2)]	no binding
IISQEGDKVVIRTLS (also called Pool 2 FABP7) [FABP7 peptide #9 (Aa 42-56 of SEQ ID NO: 1)]	no binding
CTPMGKLGDSCHPLT (also called Pool 1 PROK2) [PROK2 peptide #7 (Aa 58-72 of SEQ ID NO: 2)]	no binding
TKPTVIISQEGDKVV (also called Pool 2 FABP7) [FABP7 peptide #8 (Aa 37-51 of SEQ ID NO: 1)]	no binding
GNGRQERRKRKRSKR (also called Pool 2 PROK2) [PROK2 peptide #11 (Aa 78-92 of SEQ ID NO: 2)]	no binding
KLGDSCHPLTRKNNF (also called Pool 2 PROK2) [PROK2 peptide #8 (Aa 63-77 of SEQ ID NO: 2)]	no binding
LGEEFDETTADDRNC (also called Pool 3 FABP7) [FABP7 peptide #14 (Aa 67-81 of SEQ ID NO: 1)]	no binding
ERRKRKRSKRKKEVP (also called Pool 2 PROK2) [PROK2 peptide #12 (Aa 83-97 of SEQ ID NO: 2)]	no binding
EISFQLGEEFDETTA (also called Pool 3 FABP7) [FABP7 peptide #13 (Aa 62-76 of SEQ ID NO: 1)]	no binding
HTCPCLPGLACLRTS (also called Pool 3 PROK2) [PROK2 peptide #19 (Aa 105-119 of SEQ ID NO: 2)]	no binding
QVGNVTKPTVIISQE (also called Pool 2 FABP7) [FABP7 peptide #7 (Aa 32-46 of SEQ ID NO: 1)]	no binding

tested on: T-cells in PBMCs from MS patients and healthy controls; experiment: FluoroSpot with full-length recombinant antigens (52 patients, 24 controls), with ROC analysis; format: cell-based, human
Procedure: FIGS. 8A-8D. IFNγ/IL-22/IL-17 Fluorospot assay comparing T-cell activation in multiple sclerosis (MS)-patients and healthy controls when stimulated with full-length recombinant antigens (FABP7, PROK2, RTN3, SNAP91). Fifty-two Multiple Sclerosis patients and 24 healthy controls were tested for T-cell activation towards recombinant full-length versions of the autoantigens in a FluoroSpot assay. FIG. 8A: FABP7 isoform 2 (SEQ ID NO:1). FIG. 8B: PROK2 (SEQ ID NO:2). FIG. 8C: RTN3 SEQ ID NO:3. FIG. 8D: SNAP91 SEQ ID NO: 4. P-values calculated using Mann-Whitney test. Staples denote mean and C195%.
FIGS. 9A-9E. ROC-curves for the full-length antigens, Sensitivity and specificity when used as a diagnostic marker. Individually, the four antigens perform similarly as diagnostic markers for disease, all reaching a sensitivity of ˜50% with a specificity of 95%. FIG. 9A: FABP7 isoform 2. FIG. 9B: PROK2. FIG. 9C: RTN3. FIG. 9D: SNAP91. FIG. 9E: Using a combination of all four antigens as a diagnostic test achieves higher sensitivity and specificity. Specifically, utilizing the ratio of IL-17 divided by the square root of IFNγ response towards the mean response to the four antigens achieves a sensitivity of 70% with a specificity of >95%.
The full-length proteins can also be used in a similar way, see FIG. 9A-D. Utilizing all four full-length antigens, using each individual's average response to the four, increases the sensitivity and specificity further (FIG. 9E). Combining different readouts, such as analyzing the ratio between IL-17 and IFNγ, can increase the sensitivity of the test further (FIG. 9E, Table 2).
Recombinant full-length versions of the antigens FABP7 (SEQ ID NO: 1), PROK2 (SEQ ID NO: 2), RTN3 (SEQ ID NO: 3), SNAP91 (SEQ ID NO: 4) were produced in E. coli in house according to standard recombinant protein production protocols and purified via his-tag purification. 52 patients and 24 controls were tested for reactivity towards the antigens in an IFNγ/IL17/IL22 FluoroSpot assay as previously described.
A second, larger, cohort was collected in order to test the full length antigens. In this cohort, 52 patients and 24 healthy controls were included. The inclusion/exclusion criteria (table 5) as well as the sampling and PBMCs isolation were the same.
The antigens (FABP7, PROK2, RTN3 and SNAP91) picked out from the screening of PrESTs described in Example 1 and 2 were selected for further testing on the full-length versions of the protein. The full-length antigens were produced by transforming plasmids encoding the antigen and a […] into Escherichia coli. After growth, the bacteria were lysed and the protein purified from the supernatant of the bacterial lysis via 6× histidine-tag purification on an immobilized metal affinity chromatography-column. The antigens were subsequently coupled to beads and endotoxin-washed as previously described.
The FluoroSpot assay was performed under sterile conditions in a cell culture hood. The cells were thawed in a water bath at 37° C. and washed with cRPMI (RPMI 1640 medium, Sigma Aldrich, containing 10% fetal calf serum, 1% 200 mM L-Glutamine, 1% 10,000 U/ml Penicillin-10 mg/ml Streptomycin). The cells were counted manually using a light-microscope (Nikon TMS-F, Nikon, Japan) and subsequently diluted in cRPMI to a concentration of 2.5×10^6 cells/ml. The FluoroSpot plate (Human IFNγ/IL-22/IL-17A FluoroSpot kit, pre-coated, Mabtech, Sweden) was washed with PBS and then blocked with cRPMI for 30 min at room temperature. The blocking cRPMI was then discarded and 100 μl fresh cRPMI was added to each well of the FluoroSpot plate. Antigen (3×10^6 beads) was added to each well in duplicates according to a specific layout. In accordance to the manufacturer's protocol, anti-CD3 was used as a positive control. Both uncoupled beads and media without stimuli was used as negative controls. PBMCs (250,000 cells) in 100 μl cRPMI were added to each well (125,000 cells for the anti-CD3). […]

Molecule	reactivity of MS patients PBMCs versus controls, IFNγ	reactivity of MS patients PBMCs versus controls, IL17 and IL22
B1	significantly higher reactivity	significantly higher reactivity
B2	significantly higher reactivity	significantly higher reactivity
B3	significantly higher reactivity	significantly higher reactivity
B4	apart from IFNγ for SNAP91	significantly higher reactivity
